Source: the supplement of paper PMC9112550, “Optimization of the antimicrobial peptide Bac7 by deep mutational scanning” (BMC Biology, 2022)

These sequences were tested on Escherichia coli TOP10 (assay: shrunken log2 fold change of peptide-encoding DNA abundance (4.5 h post-induction vs induction); higher = less antimicrobial activity (less host growth inhibition)). Conditions: time post-induction: 4.5 h; library: site-saturation at positions 5, 18, 19, 20.
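Note: peptides expressed intracellularly from a pBAD plasmid library in pooled LB shake-flask culture, induced with 0.3% L-arabinose, DNA abundance read by NGS, three biological replicates, DESeq2 with apeglm shrinkage.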

Question: For RRIRDRPPRLPRPRPRPHAAPRP, which “shrunken log2 fold change” value is on record?
Answer: 0.458

Question: With RRIRDRPPRLPRPRPRPHEPPRP as the sequence, how does the “shrunken log2 fold change” value read?
Answer: 0.211

Question: RRIRDRPPRLPRPRPRPHFGPRP was tested. Which “shrunken log2 fold change” value did it give?
Answer: 0.0884

Question: How did the “shrunken log2 fold change” value turn out when RRIRDRPPRLPRPRPRPHFQPRP was run?
Answer: -0.236

Question: For RRIRDRPPRLPRPRPRPHFSPRP, which “shrunken log2 fold change” value is on record?
Answer: -0.0977

Question: Which “shrunken log2 fold change” value does the source give for RRIRDRPPRLPRPRPRPHGGPRP here?
Answer: 0.0317

Question: For RRIRDRPPRLPRPRPRPHGWPRP, which “shrunken log2 fold change” value is on record?
Answer: 0.861

Question: RRIRDRPPRLPRPRPRPHHKPRP was tested. Which “shrunken log2 fold change” value did it give?
Answer: -0.397

Question: For RRIRDRPPRLPRPRPRPHIRPRP, which “shrunken log2 fold change” value is on record?
Answer: 0.00704

Question: RRIRDRPPRLPRPRPRPHLFPRP was tested. Which “shrunken log2 fold change” value did it give?
Answer: 0.00233

Question: Which “shrunken log2 fold change” value does the source give for RRIRDRPPRLPRPRPRPHPDPRP here?
Answer: -0.116

Question: For RRIRDRPPRLPRPRPRPHPRPRP, which “shrunken log2 fold change” value is on record?
Answer: 0.081

Question: How did the “shrunken log2 fold change” value turn out when RRIRDRPPRLPRPRPRPHSLPRP was run?
Answer: -0.341

Question: Which “shrunken log2 fold change” value does the source give for RRIRDRPPRLPRPRPRPHSTPRP here?
Answer: -0.0545

Question: For RRIRDRPPRLPRPRPRPHTMPRP, which “shrunken log2 fold change” value is on record?
Answer: -0.863

Question: RRIRDRPPRLPRPRPRPHTVPRP was tested. Which “shrunken log2 fold change” value did it give?
Answer: -0.0379

Question: Which “shrunken log2 fold change” value does the source give for RRIRDRPPRLPRPRPRPHVLPRP here?
Answer: 0.00542

Question: Which “shrunken log2 fold change” value does the source give for RRIRDRPPRLPRPRPRPHYYPRP here?
Answer: -0.236

Question: How did the “shrunken log2 fold change” value turn out when RRIRDRPPRLPRPRPRPIAYPRP was run?
Answer: -0.114

Question: Which “shrunken log2 fold change” value does the source give for RRIRDRPPRLPRPRPRPICTPRP here?
Answer: 0.198

Question: RRIRDRPPRLPRPRPRPIDEPRP was tested. Which “shrunken log2 fold change” value did it give?
Answer: 0.0126

Question: With RRIRDRPPRLPRPRPRPIDIPRP as the sequence, how does the “shrunken log2 fold change” value read?
Answer: -0.0169

Question: With RRIRDRPPRLPRPRPRPIECPRP as the sequence, how does the “shrunken log2 fold change” value read?
Answer: 0.279

Question: With RRIRDRPPRLPRPRPRPIFAPRP as the sequence, how does the “shrunken log2 fold change” value read?
Answer: 0.142

Question: With RRIRDRPPRLPRPRPRPIFVPRP as the sequence, how does the “shrunken log2 fold change” value read?
Answer: 0.0563

Question: How did the “shrunken log2 fold change” value turn out when RRIRDRPPRLPRPRPRPIHAPRP was run?
Answer: 0.125

Question: How did the “shrunken log2 fold change” value turn out when RRIRDRPPRLPRPRPRPIHQPRP was run?
Answer: -0.241

Question: With RRIRDRPPRLPRPRPRPIHSPRP as the sequence, how does the “shrunken log2 fold change” value read?
Answer: -0.00999

Question: For RRIRDRPPRLPRPRPRPIHTPRP, which “shrunken log2 fold change” value is on record?
Answer: -0.159

Question: RRIRDRPPRLPRPRPRPIIDPRP was tested. Which “shrunken log2 fold change” value did it give?
Answer: -0.02

Question: RRIRDRPPRLPRPRPRPIIEPRP was tested. Which “shrunken log2 fold change” value did it give?
Answer: 0.479

Question: Which “shrunken log2 fold change” value does the source give for RRIRDRPPRLPRPRPRPIKCPRP here?
Answer: -0.0161

Question: Which “shrunken log2 fold change” value does the source give for RRIRDRPPRLPRPRPRPIKNPRP here?
Answer: -0.158

Question: For RRIRDRPPRLPRPRPRPIMFPRP, which “shrunken log2 fold change” value is on record?
Answer: 0.0387

Question: With RRIRDRPPRLPRPRPRPIMVPRP as the sequence, how does the “shrunken log2 fold change” value read?
Answer: -0.103

Question: For RRIRDRPPRLPRPRPRPIMYPRP, which “shrunken log2 fold change” value is on record?
Answer: -0.0948

Question: For RRIRDRPPRLPRPRPRPINCPRP, which “shrunken log2 fold change” value is on record?
Answer: -0.0287

Question: RRIRDRPPRLPRPRPRPINQPRP was tested. Which “shrunken log2 fold change” value did it give?
Answer: -0.389

Question: Which “shrunken log2 fold change” value does the source give for RRIRDRPPRLPRPRPRPIPGPRP here?
Answer: 0.171

Question: Which “shrunken log2 fold change” value does the source give for RRIRDRPPRLPRPRPRPIPIPRP here?
Answer: -0.0457

Question: RRIRDRPPRLPRPRPRPIQCPRP was tested. Which “shrunken log2 fold change” value did it give?
Answer: 0.0299

Question: With RRIRDRPPRLPRPRPRPIQDPRP as the sequence, how does the “shrunken log2 fold change” value read?
Answer: -0.0113

Question: With RRIRDRPPRLPRPRPRPIQTPRP as the sequence, how does the “shrunken log2 fold change” value read?
Answer: 0.00408

Question: How did the “shrunken log2 fold change” value turn out when RRIRDRPPRLPRPRPRPIRYPRP was run?
Answer: -0.103

Question: For RRIRDRPPRLPRPRPRPISCPRP, which “shrunken log2 fold change” value is on record?
Answer: -0.0129

Question: For RRIRDRPPRLPRPRPRPISKPRP, which “shrunken log2 fold change” value is on record?
Answer: 0.002

Question: With RRIRDRPPRLPRPRPRPISYPRP as the sequence, how does the “shrunken log2 fold change” value read?
Answer: -0.381

Question: RRIRDRPPRLPRPRPRPITEPRP was tested. Which “shrunken log2 fold change” value did it give?
Answer: -0.0351

Question: With RRIRDRPPRLPRPRPRPITYPRP as the sequence, how does the “shrunken log2 fold change” value read?
Answer: 0.024

Question: For RRIRDRPPRLPRPRPRPIVFPRP, which “shrunken log2 fold change” value is on record?
Answer: -0.0706

Question: Which “shrunken log2 fold change” value does the source give for RRIRDRPPRLPRPRPRPIWCPRP here?
Answer: -0.0176

Question: For RRIRDRPPRLPRPRPRPIWVPRP, which “shrunken log2 fold change” value is on record?
Answer: -0.0618

Question: For RRIRDRPPRLPRPRPRPIYKPRP, which “shrunken log2 fold change” value is on record?
Answer: -0.175

Question: For RRIRDRPPRLPRPRPRPKCFPRP, which “shrunken log2 fold change” value is on record?
Answer: 0.0766

Question: For RRIRDRPPRLPRPRPRPKCKPRP, which “shrunken log2 fold change” value is on record?
Answer: -0.0015

Question: Which “shrunken log2 fold change” value does the source give for RRIRDRPPRLPRPRPRPKCQPRP here?
Answer: -0.00187

Question: How did the “shrunken log2 fold change” value turn out when RRIRDRPPRLPRPRPRPKFCPRP was run?
Answer: -0.0512

Question: With RRIRDRPPRLPRPRPRPKFDPRP as the sequence, how does the “shrunken log2 fold change” value read?
Answer: -0.0895

Question: RRIRDRPPRLPRPRPRPKFQPRP was tested. Which “shrunken log2 fold change” value did it give?
Answer: 0.00463

Question: How did the “shrunken log2 fold change” value turn out when RRIRDRPPRLPRPRPRPKFTPRP was run?
Answer: -0.0602

Question: Which “shrunken log2 fold change” value does the source give for RRIRDRPPRLPRPRPRPKGIPRP here?
Answer: 0.0238

Question: With RRIRDRPPRLPRPRPRPKGTPRP as the sequence, how does the “shrunken log2 fold change” value read?
Answer: -0.0298

Question: With RRIRDRPPRLPRPRPRPKKLPRP as the sequence, how does the “shrunken log2 fold change” value read?
Answer: -0.0595

Question: RRIRDRPPRLPRPRPRPKLSPRP was tested. Which “shrunken log2 fold change” value did it give?
Answer: 0.0504

Question: How did the “shrunken log2 fold change” value turn out when RRIRDRPPRLPRPRPRPKMAPRP was run?
Answer: 0.38

Question: With RRIRDRPPRLPRPRPRPKNIPRP as the sequence, how does the “shrunken log2 fold change” value read?
Answer: -0.465

Question: With RRIRDRPPRLPRPRPRPKNWPRP as the sequence, how does the “shrunken log2 fold change” value read?
Answer: 2.51

Question: Which “shrunken log2 fold change” value does the source give for RRIRDRPPRLPRPRPRPKPMPRP here?
Answer: 0.135

Question: With RRIRDRPPRLPRPRPRPKQAPRP as the sequence, how does the “shrunken log2 fold change” value read?
Answer: 0.0366

Question: RRIRDRPPRLPRPRPRPKQFPRP was tested. Which “shrunken log2 fold change” value did it give?
Answer: -0.00831

Question: RRIRDRPPRLPRPRPRPKQIPRP was tested. Which “shrunken log2 fold change” value did it give?
Answer: -0.0135

Question: How did the “shrunken log2 fold change” value turn out when RRIRDRPPRLPRPRPRPKRIPRP was run?
Answer: 0.133

Question: How did the “shrunken log2 fold change” value turn out when RRIRDRPPRLPRPRPRPKRYPRP was run?
Answer: -0.236

Question: For RRIRDRPPRLPRPRPRPKSMPRP, which “shrunken log2 fold change” value is on record?
Answer: -0.0219

Question: Which “shrunken log2 fold change” value does the source give for RRIRDRPPRLPRPRPRPKTEPRP here?
Answer: -0.0167
